Measurements taken from patent publication US7648964B2, “Use of lacritin in promoting ocular cell survival” (University of Virginia Patent Foundation, priority 2004, dated 2010).

B1: lacritin: recombinant human lacritin from E. coli; mature 119 residue fragment (SEQ ID NO:10) of native lacritin SEQ ID NO:4 (protein, listed as Homo sapiens)
chain: EDASSDSTGADPAQEAGTSKPNEEISGPAEPASPPETTTTAQETSAAAVQGTAKVTSSRQELNPLKSIVEKSILLTEQALAKAGKGMHGGVPGGKQFIENGSEFAQKLLKKFSLLKPWA
B2: N-24: deletion mutant comprising a deletion of the 24 amino terminal amino acids of lacritin (protein)
chain: DSTGADPAQEAGTSKPNEEISGPAEPASPPETTTTAQETSAAAVQGTAKVTSSRQELNPLKSIVEKSILLTEQALAKAGKGMHGGVPGGKQFIENGSEFAQKLLKKFSLLKPWA
modifications: homo sapiens
notes: deletion mutant comprising a deletion of the 24 amino terminal amino acids of lacritin

Columns and labels:
[1] = tested on: human corneal epithelial (HCE) cell line; test: TNF-α-induced cell death in HCE cells (MTT cell viability); type: cell-based; settings: for protection from TNF-induced cell death (viability): 18 or 30 hours, FIG. 10
Method: (§1) Lacritin-induced proliferation and calcium signaling was studied in the human corneal epithelial (HCE) cell line. HCE cells were grown at 37° C. in DMEM F/12 supplemented with 10% FBS and 50 μg/ml gentamicin. Each experiment was done in a dose- and time-dependent manner using TNF-α (5-20 ng/ml) and lacritin (1-10 nM). Cell viability was measured spectrophotometrically at an absorbance of 570 nm using the MTT assay. Caspase-8 activity was detected fluorometrically by measuring cleavage of the fluorogenic substrate IETD-pNA at an excitation wavelength of 405 nm. Lacritin-induced cell proliferation was studied by H3-thymidine incorporation and via fluorescence-based detection of PKC, PLC and cAMP. Calcium signaling was detected by confocal microscopy of Fluo-4 loaded cells.

caspase-8 = test: Caspase-8 activity in human corneal epithelial cells treated with TNF-α; type: cell-based
Method: FIG. 12 graphically illustrates the ability of lacritin polypeptides to block TNFα induced caspase-8 activity in human corneal epithelial cells. The ordinate represents relative fluorescence units. White bars indicate 1 hour and diagonally-hatched bars indicate 6 hours.
as §1

PKCα = PKCα translocation in HSG cells (immunofluorescence, fractionation); type: cell-based, human; settings: for PKCα translocation: 15 min after treatment
Text: In order to dissect the molecular pathways leading to the cell survival by lacritin, protein kinases and transcriptional factors were studied by Western blotting and immunofluorescence microscopy.
Images were acquired at 2-3 s intervals using LaserSharp2000 software (Bio-Rad) and store on disc for later analysis.

caspase-9 = test: Caspase-9 activity in human corneal epithelial cells treated with TNF-α; type: cell-based; settings: lacritin polypeptides 10 nM
Method: FIG. 13 graphically illustrates the ability of lacritin polypeptides (10 nM) to block TNFα induced caspase-9 activity in human corneal epithelial cells. The ordinate represents relative fluorescence units. White bars indicate 6 hours and diagonally-hatched bars indicate 9 hours.
Caspase-9 activity was measured in cells treated with various combinations of TNF-α, fragments of lacritin, and the PKC inhibitor Go6976. […] The PKC-α inhibitor Go6976 and C-25 fail to block this increase of the downstream initiator caspase-9.

NFATC1 = NFATC1 translocation in HSG cells (immunofluorescence); type: cell-based, human; settings: for NFATC1 translocation: HSG and corneal epithelial cells
Text: In order to dissect the molecular pathways leading to the cell survival by lacritin, protein kinases and transcriptional factors were studied by Western blotting and immunofluorescence microscopy. […] On the other hand, there were increased activities of transcriptional factors such as nuclear factor of activated T-cells (NFAT) and NF-kappaB. In FIG. 4, translocation of PKC alpha and NFAT was detected by immunofluorescence coupled with confocal microscopic imaging. In resting HSG cells (left three images), PKC alpha distributes mainly in cytosol and membrane. Similarly, NFATc1 was also found to localize largely in cytosol. Cellular co-location of PKC alpha and NFATc1 is apparent upon merging the two immunofluorescent images, as the merged cy3 and FITC labels produce distinctive yellow color.
Images were acquired at 2-3 s intervals using LaserSharp2000 software (Bio-Rad) and store on disc for later analysis. For translocation assays, HSG cells […] phorbol 12-myristate 13-acetate, […], then washed with phosphate-buffered saline, formaldehyde-fixed, blocked with phosphate-buffered saline containing 1% bovine serum albumin and 10% goat serum, incubated with anti-PKCα (C-20) or anti-NFATC1 (mab 7A6) (both from Santa Cruz Biotechnology Inc.; Santa Cruz, Calif.) followed by secondary Cy3-, FITC- or Alexa488-labeled antibodies and confocal microscopic visualization (Bio-Rad Radiance2100).

[2] = lacritin treatment for 1 hour, immunofluorescence

Molecule	protection from TNF-induced cell death (viability) [1]	effect on TNF-α-induced caspase-8 activity (caspase-8)	effect on lacritin-dependent PKCα translocation (PKCα; pertussis toxin 100 ng/ml, Go 6976, U73122, U73343, cyclosporine 1 μM, nifedipine 10 μM)	effect on TNF-α-induced caspase-9 activity (caspase-9)	effect on lacritin-dependent NFATC1 translocation (NFATC1; cyclosporine 1 μM, nifedipine 10 μM)	effect on TNF-α-induced cell death ([1]; lacritin 10 nM pretreatment)	PKCα translocation (PKCα)	PKC alpha at the cell membrane (PKCα; about 5 minutes lacritin treatment, subcellular fractionation, Western blotting)	PKC alpha localization (PKCα; [2])	NFATC1 translocation (NFATC1)	NFAT localization (NFATC1; [2])
Cn1c2ccccc2c2c3c(c4c5ccccc5n(CCC#N)c4c21)CNC3=O [Go 6976]	no effect on viability loss	fail to block	inhibited	fail to block	inhibited	–	–	–	–	–	–
B1	protect	completely blocked	–	blocked	–	attenuated	shifted PKCα primarily to the perinuclear Golgi region	very little PKC alpha was detected at the cell membrane	localize outside of the nuclear envelope	translocates into the nucleus	translocates into nuclear compartment
B2	protect	blocked	–	blocked	–	–	shifted PKCα primarily to the perinuclear Golgi region	–	–	translocates into the nucleus	–
